Assay results as given in paper PMC4694770, “Gene Regulatory Mechanisms Underlying the Spatial and Temporal Regulation of Target-Dependent Gene Expression in Drosophila Neurons”.

Key:
[1] = biological target: T1, His::Svp (Drosophila melanogaster, UniProt P16375 1-543); test: EMSA; with or without poly(dI-dC); out-competed by WT at 20:1; Ap: 20 mM HEPES pH 7.8, 50 mM KCl, 10% glycerol, 0.25 mM EDTA, 0.1 mg/ml BSA, 1 mM DTT, 21 C; Mad: 25 mM Tris pH 7.5, 35 mM KCl, 80 mM NaCl, 5 mM MgCl2, 3.5 mM; settings: protein: recombinant; tags: N-term His; GST removed with PreScission protease; chain copies: 2; label: IRDye 700
T1 sequence: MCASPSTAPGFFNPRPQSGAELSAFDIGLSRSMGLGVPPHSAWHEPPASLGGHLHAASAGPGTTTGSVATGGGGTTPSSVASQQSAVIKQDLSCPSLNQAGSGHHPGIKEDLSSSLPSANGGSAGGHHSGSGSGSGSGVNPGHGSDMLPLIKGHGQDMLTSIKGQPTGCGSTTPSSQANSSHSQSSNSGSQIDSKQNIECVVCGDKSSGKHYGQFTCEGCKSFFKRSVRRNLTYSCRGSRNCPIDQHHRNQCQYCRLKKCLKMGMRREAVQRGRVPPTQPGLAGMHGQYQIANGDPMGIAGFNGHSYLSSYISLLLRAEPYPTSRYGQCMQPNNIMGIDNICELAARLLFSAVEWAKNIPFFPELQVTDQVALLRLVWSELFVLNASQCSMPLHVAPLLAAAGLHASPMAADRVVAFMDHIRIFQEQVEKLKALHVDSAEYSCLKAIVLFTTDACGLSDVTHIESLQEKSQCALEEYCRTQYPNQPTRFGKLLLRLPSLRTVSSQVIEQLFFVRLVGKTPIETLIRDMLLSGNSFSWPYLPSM

[2] = biological target: T2, GST-MH1-Mad (GST-MadN) (Drosophila melanogaster, UniProt P42003 26-150); test: EMSA; 1 ug poly(dI-dC), 5 mM MgCl2; out-competed by unlabeled WT; Ap: 20 mM HEPES pH 7.8, 50 mM KCl, 10% glycerol, 0.25 mM EDTA, 0.1 mg/ml BSA, 1 mM DTT, 21 C; Mad: 25 mM Tris pH 7.5, 35 mM KCl, 80 mM NaCl, 5 mM MgCl2, 3.5 mM; settings: protein: recombinant; tags: GST (pGEX6p1); label: IRDye 700
T2 sequence (P42003 26-150): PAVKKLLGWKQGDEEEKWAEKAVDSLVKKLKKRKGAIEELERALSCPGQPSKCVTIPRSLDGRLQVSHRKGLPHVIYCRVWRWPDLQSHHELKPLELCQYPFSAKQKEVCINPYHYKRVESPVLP

[3] = biological target: T2, GST-MH1-Mad (GST-MadN); test: competition; vs labeled BMP-RE; Ap: 20 mM HEPES pH 7.8, 50 mM KCl, 10% glycerol, 0.25 mM EDTA, 0.1 mg/ml BSA, 1 mM DTT, 21 C; Mad: 25 mM Tris pH 7.5, 35 mM KCl, 80 mM NaCl, 5 mM MgCl2, 3.5 mM; settings: protein: recombinant; tags: GST (pGEX6p1); label: unlabeled

B1: DR1 Svp probe (dsDNA)
DNA 1: AGCTCTCAGGTCAGAGGTCAGAGAGCT
DNA 2: AGCTCTCTGACCTCTGACCTGAGAGCT
B1: binds [1].

B2: BMP-RE probe (dsDNA)
DNA 1: GCCAGAGGCGCCACAATGTATCCCGTT
DNA 2: AACGGGATACATTGTGGCGCCTCTGGC
B2: binds [2].

B3: MutMad BMP-RE competitor (dsDNA)
DNA 1: GCCAGATAGTAGACAATGTATCCCGTT
DNA 2: AACGGGATACATTGTCTACTATCTGGC
B3: no binding [3].
